The results in this text go back to the DeepSol protein solubility set.

This series in a line: soluble on expression in E. coli; label from the status in PepcDB or PDB records.
“MFSVTLLVVSCGILAAAYPYSQQYGNYDQQYSQQSQYYPSSGQQGYRGGYQSNPGMQGGYQGNGQDSYQDFQGYQGYQRGQGGQRGYQGYQSNQRSQGSYPERYDSSMYSPVMDLTNYYGSQGTPQYYGYPSSASYQMTPYYQNQNQGYMQQQQYNTPSQSSWSPMYYGNGYQSQQSQQQQSSMGIRPYQSSWGQTQGTNTWGSPYQFTKVDAQVTDDDNVDGSGMDSSEQTSSPASTDDSQMTSNDD”: the “soluble on expression in E. coli” value is listed as “not soluble”.
In the case of “MLTEQQFRDEIRGFVDKMNENNFHWQLKEIGKYARETHLKTLSDGRVITSETHILYNSTYQVPTIWFNFFENNGSPLPFRTVIRDVLNISETEESEASIRSRISHYEHPFMGVLYYNIHPCNTSNIMKELNTDRSYLMSWFSVYGQQIGLKLPDRVL” it was “not soluble”; in that of “TLTSTLASMMDALETALQPLKKYGFPVESVVLAFSLTLRLLPLMLNTVNEVLDARKARGVAFSLTALGTPVMIRSINRARSIADALMARGAGD”, “not soluble”.
The entry for “MSVIRLHQYQVVGRALPTEKDEQPKIYRMKLWATNEVLAKSKFWYYLRRQKKVKKSNGQMLAINEIFEKNPTTIKNFGIWLRYQSRTGYHNMYKEYRDTTLNGAVEQMYTEMASRHRVRFPCIQIIKTATVPASLCKRESTKQFHNSKIKFPLVFRKVRPPTRKLKTTFKANKPNLFM” is “soluble”; for “MAHHHHHHMAEAKVVKDLAEVCASGAETYSAWTTAKALVQRRYLSAKAQGTFEDCGKLLASLTRVLQTYLRIDLAQELLSDVLFQVMEHFSAKQAAGATAAVVKDGGAPQSSFDLAAANFLQHMFDTLLSATTRTYTLMGPMPLVVEWNRDADSGGVEAAVAQSKHAAPWAEAVVLEFAVRAADFLSQRPQSADVLSHWAQNLFVSYEQLLALRLALPSSPPSTPQDGKAASAAAPSPSVPVPTLASQLLRMSTFNRASRTGKESSDSTSAATTPLTAAVYWLTHFAREPNAVNHLFAQYVYFDILGRGQQRSSTANTTPGNSGAPAKMLRERVNAALEERCTLTRREAISMARAAVEAYWQAFPLVLQQTSSVSSPQPSSCAGESSKEDANVDPQDVHLYRWTWFLDSLTLTFAYSGSASASIDEDAAVQQRERQKHVCAQLLELYADVTAELPGLKWQELVAAYIGA” it is “soluble”; for “MSELTQLAQQEKKQTYNFNKLQKRLRRNVGNAIADFGMIEDGDKVMVCLSGGKDSYTLLDILLNLQQSAPIKFDIVAVNLDQKQPGFPEHVLPEYLESIGVDYKIVQENTYGIVKEKIPEGKTTCSLCSRLRRGILYRTATELGATKIALGHHRDDMLATLFLNMFYGGKIKSMPPKLISDDGKQIVIRPLAYCKEKDIEKYAIAKEFPIIPCNLCGSQPNLQRQVVKEMLNTWDRQYPGRLETMFSAMQNITLSHMCDPKLFDFKGIKHGQLIDGIEGDTAFDEERITPMQFEDEDQTDFSNKEMINFKEVN” it is “not soluble”.
The entry for “MKVPPKKKFLGNSEHPGDLLTQTSKCECQLASVYGNGRVPVKNKKATNAYFQQSIPSWSDTLRMTRQNKKQRGRRRWKKNRKKRRVKTG” is “not soluble”; for “MAHHHHHHMNRENLEELKILNLKNDKQPIYNFRCKHCNYVLFNDNEIIKHDFKISKIKKNYGNSCTSIFIEKKEWILTENKMKGVLNCPNCNIKLGKWSWTGICCSCGYLQIPAFMINSSNVDRMNISKTV” it is “soluble”; for “MDADSSNSTVTPGRLPDGLSSCPCFYLGKKLMNLSANAQATLLLTSDFSRAAASKYKPLSNSEWGKFALWLKHQRISPAELLVPQPQEKLTGWSDPRISQERILGLLARGHSLALAVDKWQRAGLWILTRGDADYPVRLKNRLRTDAPPVLFGCGNKALLQAEGMAIVGSRDAPTDDLRYTQQLAAKLAQQGICVISGGARGIDECAMASALEAGGTAVGVLADSLLKTSTLVKWREGLIAGNLVLISPFYPEVRFTVGNAMARNKYIYCLAESAMVVRAGMTGGTITGAMEALKHQWLPVQVKPNQDMQSANSRLVENGASWSAEQAENVTIRLPDVPGLMYDRALRNAQPELFSLHEDDANYAVMPAYTPVDFYQLFVAELAILAKESISIERLASCTGLTIEQISVWLNRAEEEGRVIRLGEGHYQFR” it is “not soluble”.
As to “MGSDKIHHHHHHMSSHQPAPPARPTNKVFIIGLPRTGTTSVSVALLEMGLRVAHQAFTKQAVILADAISDAPCFSDYRQLHSLYPDAKFIYLDRPLDAWVPSMQMLLSRMLVHLDKERGRFHPLLKRSFGHTFGIYRVADPMDAEHLKTCYQVHKQQVFDYFHQDQGLAQQFLSLQLDDPQSLPRLANFIGLDAQVDSPQLAFPHLNRGRNVASWDEYKHELKISSNLAGPENRKYFNYKI”, the “soluble on expression in E. coli” value is “not soluble”.
The entry for “MSAFQPTIKRRESTKIYVGNVPIGGDAPIAVQSMTNTRTTDVEATVAQIKSLERVGADIVRVSVPTMDAAEAFKQIKQQVNVPLVADIHFDYRIALKVAEYGVDCLRINPGNIGREDRVRAVVDCARDKNIPIRIGVNAGSLEKDLQEKYGEPTPEALLESALRHVEILDRLNFDQFKVSVKASDVFLAVESYRLLAKAIKQPLHLGITEAGGARAGAVKSAVGLGMLLAEGIGDTLRVSLAADPVEEIKVGFDILKSLRIRSRGINFIACPTCSRQEFDVIGTVNALEQRLEDIITPMDVSIIGCVVNGPGEALVSDLGVTGGNKKSGYYLDGERQKERFDNEDIVNQLEAKIRAKVARQDPKNRII” is “not soluble”.
“MSYFSHQDPNNPESHINFTMAQMEIQRWTLLISNPEADASTLVMELKTVTGESKHFINQAINAMWALMKLPILRVVVETHFHVRIPYLARIMQAVKQAKPELWDELDHRIAEKLTPRIAGQALMEASALAGLITRWIKELDPTFTGKKRGPKGSDGTLTFRHVDGRTYISGNIDGVTGKLFQKALEKVKQKGEDLARALVTFLAGRTKVKIVSAVYTPLVGGVSWIPGVGFLSQEESRKLGKTASKVIDLDTIATRVENGYTPSPELRLYVMGRDGTCRHPGCTVSADNCQIDHVIPFGEGGLTVAWNLQCLCAHHHNMKTDGRIQAAIDSMGRVAWIGPCNRTVVTEPVGPLAQEMPTGQWGQTLEARMEKTFEKLRSSLEVLDDLEHHHHHH”: the “soluble on expression in E. coli” value was “soluble”.
Regarding “MSLHYQPKQDLLQNRIILVTGASDGIGREAALTYARYGATVILLGRNEEKLRRVAQHIADEQHVQPQWFTLDLLTCTAEECRQVADRIAAHYPRLDGVLHNAGLLGEIGPMSEQDPQIWQDVMQVNVNATFMLTQALLPLLLKSDAGSLVFTSSSVGRQGRANWGAYATSKFATEGMMQVLADEYQNRSLRVNCINPGGTRTSMRASAFPTEDPQKLKTPADIMPLYLWLMGDDSRRKTGMTFDAQPGRKEGHHHHHH”, the “soluble on expression in E. coli” value is on record as “soluble”.
With “MKSFVLFALFSVAAAQFGGYGRGRGGPGGPGGFEGGPAGAGGFQGNGAGELTYEAKGRLICGLTGVDKVRVVLWDRFRGRENIIYDETNTDVVGNFRLRATRNGFDGNLIQPFLTIYHDCDDASTPGLRKMTVQLPPQYTNQGSLALKSFDIGTWNLETSFAGEELEIQNGGLGGRPIGGSSFGQGNRGQFGGNREIFAHGGRSDFGDSSISV”, the “soluble on expression in E. coli” value is “not soluble”.
For the sequence “MAHHHHHHMANIITLKSAWDVDRHIVLDSADKLVLIRFSSYTSAAVEAEEYSRQVKRGTATSTSTVAEGSSNSSSSALPTRKRRHDDADGNSACAVTSAATAALLSANVDEHYLRTRQMDALLSELAPKVRKYCTIYFVDTREVTAFNELYELGHDRDPFAVMFFYRNRHIRVDVGTGNNNKINFFAFEDLYDFLPIVDAAYKAGRQGRSIASCDRKFSTVALRR”, the “soluble on expression in E. coli” value was “soluble”.
On to “MAIELYSQREIEKIRKASQIVAEVLHIVAENVKPGVSTWDLEMIARKETEKRGAKPAFLGYKPPFSDVRYPAALCISINDEVVHGLPKKEKVIKEGDVVSIDFGAIYDGYAGDSAITVIAGKGSPEAQKLLEATKEALYNAIEKALPGKKVGDITKAIHETAEKYGFKTILRYGGHGVGRKVHQEPFVPNNVKDIGKKNPRLRQGMVIAIEPMLSIGTEETVEDGDGWTVKTKDGSLAAHFEHTVAITKKGPVILTEL”, for which the “soluble on expression in E. coli” value is on record as “soluble”.
